Experiments:
Assay in all cases: SPR
[1] = molecular target: NL2Δ (rat neuroligin 2 cholinesterase-like region, without insert A) (rat)
[2] = molecular target: NL3A1 (rat neuroligin 3 cholinesterase-like region, with insert A1, without insert A2) (rat)
[3] = molecular target: NL1Δ (rat neuroligin 1 cholinesterase-like region, without inserts A and B) (rat)
[4] = molecular target: NL3A2 (rat neuroligin 3 cholinesterase-like region, with insert A2, without insert A1) (rat)
[5] = molecular target: NL3Δ (rat neuroligin 3 cholinesterase-like region, without inserts A1 and A2) (rat)
[6] = molecular target: NL1A (rat neuroligin 1 cholinesterase-like region, with insert A, without insert B) (rat)
[7] = molecular target: NL1B (rat neuroligin 1 cholinesterase-like region, with insert B, without insert A) (rat)
[8] = molecular target: NL1AB (rat neuroligin 1 cholinesterase-like region, with inserts A and B) (rat) (UniProt Q62765)
[9] = molecular target: NL3A1A2 (rat neuroligin 3 cholinesterase-like region, with inserts A1 and A2) (rat) (UniProt Q62889)
[10] = molecular target: NL2A (rat neuroligin 2 cholinesterase-like region, with insert A) (rat) (UniProt Q62888)

Sequence of β-NRX2+4 (rat β-neurexin 2 LNS domain, with splice insert 4) (Q63376 87-290): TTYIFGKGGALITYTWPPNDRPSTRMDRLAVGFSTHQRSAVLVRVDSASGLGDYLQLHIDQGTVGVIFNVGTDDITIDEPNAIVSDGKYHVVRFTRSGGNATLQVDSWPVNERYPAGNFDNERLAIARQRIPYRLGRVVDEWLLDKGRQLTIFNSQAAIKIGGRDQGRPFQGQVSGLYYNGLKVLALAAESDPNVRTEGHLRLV
Sequence of β-NRX1+4 (mouse β-neurexin 1 LNS domain, with splice insert 4) (P0DI97 86-288): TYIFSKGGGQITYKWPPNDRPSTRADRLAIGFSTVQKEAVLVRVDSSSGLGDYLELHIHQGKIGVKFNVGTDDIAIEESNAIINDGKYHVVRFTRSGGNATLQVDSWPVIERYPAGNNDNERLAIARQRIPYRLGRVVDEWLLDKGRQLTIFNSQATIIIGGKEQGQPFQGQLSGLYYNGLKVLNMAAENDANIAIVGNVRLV

Row | Substance | Kd [1] [µM] | Kd [2] [µM] | Kd [3] [µM] | Kd [4] [µM] | Kd [5] [µM] | Kd [6] [µM] | Kd [7] [µM] | Kd [8] [µM] | Kd [9] [µM] | Kd [10] [µM]
1 | β-NRX1+4 (mouse β-neurexin 1 LNS domain, with splice insert 4) (from UniProt P0DI97 86-288) (domain or fragment) | 3.52 | 12 | 1.54 | 21.9 | 23.8 | 2.1 | 2.75 |  |  | 
2 | β-NRX1Δ4 (mouse β-neurexin 1 LNS domain, lacking splice insert 4) (domain or fragment) | 0.964 | 7.45 | 0.828 | 7.15 | 8.17 | 0.845 | 1.16 | 1.21 | 6.57 | 
3 | β-NRX2+4 (rat β-neurexin 2 LNS domain, with splice insert 4) (from UniProt Q63376 87-290) (domain or fragment) | 3.39 | 20.5 | 3.77 | 42.2 | 56.8 | 3.32 | 5.48 |  |  | 
4 | β-NRX2Δ4 (rat β-neurexin 2 LNS domain, lacking splice insert 4) (domain or fragment) | 0.706 | 9.05 | 0.917 |  | 16.5 | 1.47 | 2.21 | 2.29 | 15.3 | 
5 | β-NRX3+4 (mouse β-neurexin 3 LNS domain, with splice insert 4) (domain or fragment) | 0.262 | 4.32 | 0.332 |  | 9.73 | 0.246 | 0.365 | 0.393 | 9.39 | 0.239
6 | β-NRX3Δ4 (mouse β-neurexin 3 LNS domain, lacking splice insert 4) (domain or fragment) | 0.418 | 6.26 | 1.02 | 11.2 | 10.1 | 0.782 |  |  | 10.9 | 0.369
